Measurements published in patent US20190177366A1.
Square brackets hold non-standard residues; d marks the D form. * marks the point of attachment. hArg = N=C(N)NCCCC[C@H](N)C(=O)O; Pentanoyl = CCCCC(=O)*

Biological target: PCSK9Δhelix (human) (UniProt Q8NBP7)
Assay: TR-FRET competition, Ab20 as competitor

Sequence of PCSK9Δhelix (human) (Q8NBP7 31-152 limits assumed, stated change not applied, chain 1 of 2): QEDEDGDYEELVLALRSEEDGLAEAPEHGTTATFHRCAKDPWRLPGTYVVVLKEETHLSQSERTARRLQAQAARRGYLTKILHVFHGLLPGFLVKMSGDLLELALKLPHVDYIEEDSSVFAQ
Sequence of PCSK9Δhelix (human) (Q8NBP7 other isoform, or with tags, fused parts or gaps mutant limits assumed, chain 2 of 2): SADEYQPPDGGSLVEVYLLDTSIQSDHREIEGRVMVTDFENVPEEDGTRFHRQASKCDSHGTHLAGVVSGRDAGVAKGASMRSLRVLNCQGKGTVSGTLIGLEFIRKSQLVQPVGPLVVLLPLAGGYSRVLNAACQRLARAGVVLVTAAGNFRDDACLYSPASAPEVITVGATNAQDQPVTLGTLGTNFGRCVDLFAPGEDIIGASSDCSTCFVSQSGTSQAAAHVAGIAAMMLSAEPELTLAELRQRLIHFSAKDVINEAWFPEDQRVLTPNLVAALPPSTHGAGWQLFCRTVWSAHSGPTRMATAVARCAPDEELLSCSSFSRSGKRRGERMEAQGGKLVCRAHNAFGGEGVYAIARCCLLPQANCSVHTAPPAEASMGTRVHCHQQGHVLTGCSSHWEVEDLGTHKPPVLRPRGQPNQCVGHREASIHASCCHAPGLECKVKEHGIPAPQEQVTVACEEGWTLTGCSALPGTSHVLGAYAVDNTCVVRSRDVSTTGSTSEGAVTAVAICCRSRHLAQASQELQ

B1: Compound 111 (peptide)
peptide: Pentanoyl-WNLVRIGLLR-NH2
SMILES: CCCCC(=O)N[C@@H](Cc1c[nH]c2ccccc12)C(=O)N[C@@H](CC(N)=O)C(=O)N[C@@H](CC(C)C)C(=O)N[C@H](C(=O)N[C@@H](CCCNC(=N)N)C(=O)N[C@H](C(=O)NCC(=O)N[C@@H](CC(C)C)C(=O)N[C@@H](CC(C)C)C(=O)N[C@@H](CCCNC(=N)N)C(N)=O)[C@@H](C)CC)C(C)C
In the case of B1, the IC50 is reported as under 10 µM.

B2: Compound 118 (peptide)
peptide: Pentanoyl-WNLV[hArg]IGLTR-NH2
SMILES: CCCCC(=O)N[C@@H](Cc1c[nH]c2ccccc12)C(=O)N[C@@H](CC(N)=O)C(=O)N[C@@H](CC(C)C)C(=O)N[C@H](C(=O)N[C@@H](CCCCNC(=N)N)C(=O)N[C@H](C(=O)NCC(=O)N[C@@H](CC(C)C)C(=O)N[C@H](C(=O)N[C@@H](CCCNC(=N)N)C(N)=O)[C@@H](C)O)[C@@H](C)CC)C(C)C
In the case of B2, the fold increase of inhibition against the arginine peptide (Compound 112) is reported as 5 fold.
